Drawing on patent US20240263160A1 (BIOMARIN PHARMACEUTICAL, published 2024), this text covers IC50 for one molecule.

This experiment addresses IGF2 receptor (cation-independent mannose-6-phosphate receptor). In words: IGF2 receptor binding assay; average over the BMN001 lots used in the nonclinical studies; format and competitor not described.

B1: BMN001 therapeutic fusion protein (mature human Naglu fused through a rigid linker to a furin-resistant IGF-II peptide, amino acids 8-67 of mature human IGF-II … (enzyme)
chain: DEAREAAAVRALVARLLGPGPAADFSVSVERALAAKPGLDTYSLGGGGAARVRVRGSTGVAAAAGLHRYLRDFCGCHVAWSGSQLRLPRPLPAVPGELTEATPNRYRYYQNVCTQSYSFVWWDWARWEREIDWMALNGINLALAWSGQEAIWQRVYLALGLTQAEINEFFTGPAFLAWGRMGNLHTWDGPLPPSWHIKQLYLQHRVLDQMRSFGMTPVLPAFAGHVPEAVTRVFPQVNVTKMGSWGHFNCSYSCSFLLAPEDPIFPIIGSLFLRELIKEFGTDHIYGADTFNEMQPPSSEPSYLAAATTAVYEAMTAVDTEAVWLLQGWLFQHQPQFWGPAQIRAVLGAVPRGRLLVLDLFAESQPVYTRTASFQGQPFIWCMLHNFGGNHGLFGALEAVNGGPEAARLFPNSTMVGTGMAPEGISQNEVVYSLMAELGWRKDPVPDLAAWVTSFAARRYGVSHPDAGAAWRLLLRSVYNCSGEACRGHNRSPLVRRPSLQMNTSIWYNRSDVFEAWRLLLTSAPSLATSPAFRYDLLDLTRQAVQELVSLYYEEARSAYLSKELASLLRAGGVLAYELLPALDEVLASDSRFLLGSWLEQARAAAVSEAEADFYEQNSRYQLTLWGPEGNILDYANKQLAGLVANYYTPRWRLFLEALVDSVAQGIPFQQHQFDKNVFQLEQAFVLSKQRYPSQPRGDTVDLAKKIFLKYYPRWVAGSWGAPGGGSPAPAPTPAPAPTPAPAGGGPSGAPLCGGELVDTLQFVCGDRGFYFSRPASRVSARSRGIVEECCFRSCDLALLETYCATPAKSE
notes: also called Naglu/IGF-II fusion protein
Usually IC50 stands for the concentration at which inhibition is half-maximal. Low readings indicate higher potency, high ones lower potency. As for B1, the concentration for half-maximal inhibition (IC50) came out at 0.28 nM. In other words, the sub-nanomolar range.
